Where no end group is shown, it is not given here.
B1: Fc-TPP1 (Fc fusion)
chain: GGGGSGGGGSGGGGSHTPGNSNQFVLTSTRPPR
modifications: not fully specified (N-terminus); also: Fc fusion, peptide at end of CH3, Fc not in chain, disulfide-linked Fc dimer
notes: Disulfide-linked dimer, peptide fused to the end of CH3 by a (G4S)3 linker; expressed in HEK293-F; also called Fc-TPP1 fusion protein; Fc-TPP1 protein; not shown: Antibody heavy-chain constant region Fc (hinge-CH2-CH3)
B2: Fc-A22p (Fc fusion, not shown: a dimerising Fc or GST; small tags and cut ends)
chain: HTPGNSNKWKHLQENKKGRPRR
modifications: not fully specified (N-terminus); also: fused C-terminal to Fc (hinge-CH2-CH3), isotype and sequence not given here, linker not given here
B3: Fc-TPP8 (Fc fusion, not shown: a dimerising Fc or GST; small tags and cut ends)
chain: GGGGSGGGGSGGGGSHTPGIATRTPR
modifications: not fully specified (N-terminus); also: Fc fusion, Fc not in chain, disulfide-linked Fc dimer

Experiments:
[1] = molecular target: NRP1-b1b2 (273-586) protein (UniProt O14786); assay: ELISA on immobilised NRP1-b1b2, reference Fc-TPP11
[2] = molecular target: NRP1-b1b2 (273-586) protein (UniProt O14786); assay: SPR (Biacore 2000), NRP1-b1b2 immobilised on CM5
[3] = molecular target: NRP2-b1b2 (275-595) protein (UniProt O60462); assay: SPR; KD on NRP2-b1b2 divided by KD on NRP1-b1b2
[4] = molecular target: NRP2-b1b2 (275-595) protein (UniProt O60462); assay: SPR (Biacore 2000), NRP2-b1b2 immobilised on CM5
[5] = molecular target: T1, NRP1 displayed on the human umbilical vein endothelial cell (HUVEC) surface (human, UniProt O14786 22-923); assay: confocal microscopy on HUVEC
T1 construct: whole, on cells; Endogenous NRP1 of human cells; also called NRP1 on the HUVEC cell surface
Protocol: Specifically, 5×10⁴ HUVEC cells were added to each well of a 24-well plate and incubated in 0.5 ml of EGM2 (Endothelial growth medium, Promocell) medium for 24 hours under the conditions of 5% CO₂ and 37° C. […] Next, the medium was removed, and each well was washed with cold PBS. […] The nucleus was stained (blue fluorescence) with DAPI and analyzed by confocal microscopy.

Chain of NRP2-b1b2 (275-595) protein (O60462 275-595 limits assumed, form in doubt): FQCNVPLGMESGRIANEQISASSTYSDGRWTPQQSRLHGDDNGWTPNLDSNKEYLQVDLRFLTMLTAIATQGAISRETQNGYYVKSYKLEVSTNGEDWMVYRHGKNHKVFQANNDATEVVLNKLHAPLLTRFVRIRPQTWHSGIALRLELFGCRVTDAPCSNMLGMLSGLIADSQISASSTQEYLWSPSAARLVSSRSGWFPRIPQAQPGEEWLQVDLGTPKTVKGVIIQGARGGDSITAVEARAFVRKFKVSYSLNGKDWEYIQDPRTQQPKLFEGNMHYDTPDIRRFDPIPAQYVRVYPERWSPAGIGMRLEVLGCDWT

| Binder | fold lower affinity than Fc-TPP11 [1] | Kd [2] | Binding Affinity Ratio [(KD for NRP2)/KD for NRP1)] [3] | Kd [4] | binding result [5] |
| --- | --- | --- | --- | --- | --- |
| HTPGNSKPTRTPRR (also: biotinylated for ELISA, position not given here) [synthetic peptide TPP11 not fused to Fc] | 100 fold |  |  |  |  |
| B1 |  | 1.81 nM | 625 | 1130 nM | binds |
| B2 |  |  | 0.98 | 62 nM |  |
| B3 |  | 3.85 nM | 65.8 | 254 nM |  |

— patent publication US20220041683A1 (published 2022)
